# B1: monoclonal antibody 38B5 (antibody, V domains shown)
# VH: QIQLVQSGPELKKPGETVKISCKASGYIFRNYGMNWVKQAPGKGLKWMGWINTYTGEPTYADDFKGRFAFSLETSASTAYLQINNLKNEDMATYFCARRGWLLTGGAMDYWGQGTSVTVSQ
# VL: DIQMTQSPSSLSASLGERVSLTCRASQDIGSSLNWLQQEPDGTIKRLIYATSSLDSGVPKRFSGSRSGSDYSLTISSLESEDFVDYYCLQYVSSPWTFGGGTKLEIKR
# notes: also called mAb 38B5
# B2: monoclonal antibody 36B11 (antibody, V domains shown)
# VH: QIQLVQSGPDLKKPGETVKISCKASGYIFRNYGMNWVKQAPGKGLKWMGWINTYTGEPTYADDFKGRFAFSLETSASTAYLQINNLKNEDMATYFCARDCGTSHYYAMDYWGQGT
# VL: DIQMTQTTSSLSASLGDRVTISCRASQDISNYLNWYQQKPDGTVKLLIYYTSRLHSGVPSRFSGSGSGTDYSLSISNLEQEDIATYFCQQGNTFPLTFGAGTKLDLKR
# notes: the VH entry is cut short at its C-terminus; also called mAb 36B11
# B3: monoclonal antibody 25C8 (antibody, V domains shown)
# VH: QVQLQQSGAELVRPGTSVKVSCKASGYAFTIYLIEWVKQRPGQGLEWIGVINPGSGGTNYNEKFKGKATLTADKSSSTAFMQLSSLTSDDSAVYFCARSYYYGSFAMDYWGQGTSVTVSQ
# VL: DVQMTQTISSLSASLGDRVTISCRASQDIGNYLNWYQQKPDGTVKLLIYYTSRLHSGVPSRFSGSGSGTDYSLTISNLEQEDIATYFCQQGNTLRTFGGGTKLEIKR
# notes: also called mAb 25C8
# Biological target: T1, human CEACAM1 (as used in Surface Plasmon Resonance) (human)
# T1 chain: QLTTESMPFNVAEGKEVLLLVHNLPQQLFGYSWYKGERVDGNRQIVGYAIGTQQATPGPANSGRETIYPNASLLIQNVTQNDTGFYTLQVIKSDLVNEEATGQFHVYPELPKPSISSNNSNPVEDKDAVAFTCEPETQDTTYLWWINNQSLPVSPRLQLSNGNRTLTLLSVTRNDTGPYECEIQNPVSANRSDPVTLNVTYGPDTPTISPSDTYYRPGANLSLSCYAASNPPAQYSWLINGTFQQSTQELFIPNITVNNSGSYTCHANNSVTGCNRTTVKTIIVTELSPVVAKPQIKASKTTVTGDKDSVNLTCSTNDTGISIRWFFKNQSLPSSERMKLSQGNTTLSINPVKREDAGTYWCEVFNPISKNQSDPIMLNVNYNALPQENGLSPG
# Assay: Surface Plasmon Resonance
Binder,Kd [nM],koff [s⁻¹],kon [M⁻¹ s⁻¹]
B1,0.589,0.000482,818000
B2,1.42,0.000108,76100
B3,3.88,0.000193,49600

# Reference: patent US20210380687A1 (ALBERT EINSTEIN COLLEGE OF MEDICINE, published 2021)
